Patent US12710427B2, “Anti-human neurotensin receptor 1 antibody and use thereof” (National Health Research Institutes, priority 2020, dated 2026)
Where a chain is given by its changes, count along the chain named. Names may count otherwise. “Also recorded” adds a separate entry of the source.

B1: h7C3-4: h7C3-3 variant with S9T and D82E in VH and K79T in VL; VH SEQ ID NO: 13, VL SEQ ID NO: 14 (antibody, V domains shown)
VH: QVQLQQPGTVLVRPGASVKLSCKASGYAFTSSWIHWAKQRPGQGLEWIGQIRPNSGNTYYNEKFKVKATLTVDTSSSTAYVELSSLTSEDSAVYYCARYHYGFDYWGQGTLVTVSS
VL: DVLMTQTPLSLPVSLGDQASISCRSSQSIVHSNGNTYLEWYLQKPGQSPKLLIYKVSNRFSGVPDRFSGSGSGTDFTLTISRVEAEDLGVYYCFQGAHLPWTFGGGTKLEIKR
modifications: VH SEQUENCE; VL SEQUENCE
B2: h7C3-3-MMAE: h7C3-3 conjugated with MMAE via cleavable valine-citrulline linker, average 3.8-4 MMAE per antibody (conjugate)
VH: B1 VH with T9S, E82D
VL: B1 VL with T79K
modifications: non-natural residues
notes: h7C3-3 conjugated with MMAE via cleavable valine-citrulline linker, average 3.8-4 MMAE per antibody
B3: h7C3-4-MMAE: h7C3-4 conjugated with MMAE via cleavable valine-citrulline linker, average 3.8-4 MMAE per antibody (conjugate)
VH: B1 VH
VL: B1 VL
B4: h7C3-5: humanized variant; heavy chain SEQ ID NO: 15, light chain SEQ ID NO: 16 (antibody, V domains shown)
VH: QVQLVQSGAEVKKPGASVKVSCKASGYAFTSSWIHWVRQAPGQRLEWMGQIRPNSGNTYYNEKFKVRVTITRDTSASTAYMELSSLRSEDTAVYYCARYHYGFDYWGQGTLVTVSS
VL: DIVMTQTPLSLSVTPGQPASISCRSSQSIVHSNGNTYLEWYLQKPGQSPQLLIYKVSNRFSGVPDRFSGSGSGTDFTLKISRVEAEDVGVYYCFQGAHLPWTFGGGTKVEIKR
modifications: VH SEQUENCE; VL SEQUENCE
B5: h7C3-5-MMAE: h7C3-5 conjugated with MMAE via cleavable valine-citrulline linker, average 3.8-4 MMAE per antibody (conjugate)
VH: B4 VH
VL: B4 VL
modifications: non-natural residues
notes: h7C3-5 conjugated with MMAE via cleavable valine-citrulline linker, average 3.8-4 MMAE per antibody

What was measured:
PC-3 = assay: In vitro cell cytotoxicity assay (CellTiter-Glo); assay type: cell-based
Protocol: (§1) The number of living cells were determined using the CellTiter-Glo® Luminescent Cell Viability Assay (Promega G7571). Cells were plated in 96-well opaque Costar plates (Cat number 136101). In brief, 500-2500 cells in 90 μL media were added to each well in quadruplicate and allowed to adhere for 16 hours. Anti-NTSR1 (dose range: 0-500 nM), anti-NTSR1-MMAE (dose range: 0-500 nM) or Paclitaxel (dose range: 0-100 nM) were added in […] 72-120 hours, medium was removed, and 200 μL of CellTiter-Glo® viability reagent contain culture medium (1:1) was added to each well and placed on an orbital shaker in the dark for 2 minutes. The plate was allowed to sit at RT for 10 minutes before being read on a GloMax® Explorer Multimode Microplate Reader (GM3500).

A549 = assay: In vitro cell cytotoxicity assay (CellTiter-Glo); assay type: cell-based
Protocol: as §1

Isoelectric point (pI) = assay type: physicochemical
[1] = Pharmacokinetics in mice, serum antibody by ELISA; assay type: in vivo
Protocol: The pharmacokinetics of h7C3-3 and h7C3-4 were evaluated in B6 mice. B6 mice (n=6) were administered 10 mg/kg of test material (based on the antibody component) by tail vein injection. Blood samples were collected from each mouse via the saphenous vein at hour 1, 2, and 6, and at day 1, 2, 3, 4, 7, 9, 11, 14, 16, 18, 21, 23, 25, 35 and 42 post-injection, and serum samples were collected. Plasma concentrations of h7C3-3 and h7C3-4 were measured by IgG (Total) Human ELISA Kit (Invitrogen, BMS2091).

H1299 = assay: In vitro cell cytotoxicity assay (CellTiter-Glo); assay type: cell-based
Protocol: as §1

HA22T = assay: In vitro cell cytotoxicity assay (CellTiter-Glo); assay type: cell-based
Protocol: as §1

HA22T-Luc = assay: In vitro cell cytotoxicity assay (CellTiter-Glo); assay type: cell-based
Protocol: as §1

Mahlavu = assay: In vitro cell cytotoxicity assay (CellTiter-Glo); assay type: cell-based
Protocol: as §1

[2] = tested on: HA22T-Luc liver tumor xenografts; assay: HA22T-Luc liver tumor xenograft model; assay type: in vivo, SCID mice; details: for tumor volume on day 15 / tumor volume until 36 days: 10 mg/Kg i.v. twice weekly for four doses; for body weight: 10 mg/kg, HA22T-Luc xenograft mice
Excerpt: (§2) Immuodeficient male NU/NU nude mice (for H1299 and PC-3 xenograft study) and male Fox Chase SCID® mice (for HA22T-Luc xenograft study) of 7-week-old purchased from BioLASCO were housed in sterilized cages equipped with an air filter and sterile bedding materials at the Laboratory Animal Center of the National Health Research Institutes (NHRI), which is an AAALAC International accredited facility. All mice were fed with sterilized water and chow ad libitum under 12-hour light/12-hour dark cycle throughout the study. On the day of tumor cell inoculation, the number of viable cells was counted by using a hemocytometer with trypan blue staining under a light microscope. Cells were suspended in phenol red-free medium [RPMI1640 (H1299) or DMEM (HA22T-Luc)] or PBS (PC-3) and Matrigel™ (356237, Matrigel® Matrix, Corning, MA, United States) in 1:1 ratio. H1299 (1×10^6 cells), HA22T-Luc (5×10^6 cells) and PC-3 (1×10^6 cells) were implanted subcutaneously into the left flank of either nude or SCID mice using a 1 mL syringe (needle 24G×1 inch). Tumor dimensions were measured with a digital caliper, and the tumor volume in mm^3 was calculated by the formula: Volume=(length×width^∧2)/2. Tumor-bearing mice were grouped (n=5-8 per group) and administered when the average tumor volume was approximately at 200 mm^3. In the 3 individual xenograft studies, human IgG (HU-GF-ED, Lot#120916DG, Molecular Innovations, MI, USA), h7C3-4, h7C3-3-MMAE and h7C3-4-MMAE were diluted in 1× Dulbecco's Phosphate Buffered Saline (02-023-5A, Biological Industries, CT, USA) freshly before dosing at concentration of 2.5 mg/ml. Cisplatin (KEMOPLAT, 1 mg/mL, 87200009AA, Fresenius Kabi, Bad Homburg, Germany) was purchased. In the H1299 xenograft study, tumor-bearing mice were divided into 5 groups (6 mice per group): Human IgG −10 mg/Kg group (negative control), Cisplatin—7 mg/Kg group (positive control), h7C3-3-MMAE —10 mg/Kg group, h7C3-4 −10 mg/Kg group and h7C3-4-MMAE −10 mg/Kg group. The mice were intravenously injected with 4 mL/Kg of dose volume by tail vein twice per week for 3 weeks, except for the Cisplatin group, which was once per week for 3 weeks. In the HA22T-Luc xenograft study, tumor-bearing mice were divided into 3 groups (8 mice per group): Human IgG −10 mg/Kg group (negative control), h7C3-3-MMAE −10 mg/Kg group and h7C3-4-MMAE (ADC) −10 mg/Kg group. The mice were intravenously injected with 4 mL/Kg of dose volume by tail vein twice per week for 2 weeks. In the PC-3 xenograft study, tumor-bearing mice were divided into 2 groups: no treatment group (5 mice) and h7C3-4-MMAE (ADC) −10 mg/Kg (8 mice). The mice in h7C3-4-MMAE −10 mg/Kg group were intravenously injected with 4 mL/Kg of dose volume by tail vein twice per week for 3 weeks. Each treatment was based on the body weight. Body weight and tumor size were measured twice weekly.
To compare the anti-tumor efficacies of h7C3-3-MMAE and h7C3-4 MMAE, an experiment was performed with 5×10^6 HA22T-luc liver cancer cells inoculated subcutaneously to SCID mice. Tumor-bearing mice were divided into 3 groups (n=8). When the tumors reached a volume of 200 mm^3, 10 mg/Kg of human IgG, h7C3-3-MMAE and h7C3-4 MMAE were administered intravenously, respectively, twice weekly for four doses.

[3] = tested on: NTSR1-expressing A549 cancer cells; assay: Internalization of h7C3-3 or h7C3-3-ADC in A549 cells (flow cytometry); assay type: cell-based; details: A549, 1 μg/ml, 37° C. for 90 minutes
Protocol: A total of 1×10^6 cells were reacted with the indicated antibody or ADC in 100 μL of FACS buffer for 60 minutes at 4° C. and washed to remove excess antibody or ADC. Cells were then transferred to 4° C. or 37° C. for 90 minutes. To determine the relative number of h7C3-3 or h7C3-3-ADC on the cell surface, cells were stained with saturating amounts of FITC (BD Pharmingen™) conjugated mouse anti-human IgG antibodies and incubated for additional 60 minutes on ice. Cells were washed again and followed by an additional incubation with 1 ml PBS containing 0.5 mg/mL propidium iodide at 4° C. for 10 minutes. Data were collected on 10,000 living cells by FACS (Bio-Red S3e cell sorter). Fluorescence intensity from channel FL-1 was calculated with Flow Jo flow cytometry analysis software. Preparation of anti-NTSR1 antibody-drug conjugates (ADCs)

[4] = tested on: H1299 lung tumor xenograft; assay: H1299 lung tumor xenograft model; assay type: in vivo, nude mice; details: for body weight: 10 mg/kg, H1299 xenograft mice
Excerpt: as §2
Nude mice were subcutaneously inoculated with NTSR1-expressing cells, H1299 (1×10^6 cells per mouse). When the tumors reached a volume of 200 mm^3, the tumor-bearing mice were grouped (n=6) and administered intravenously with human IgG (negative control), h7C3-3-MMAE, h7C3-4 and h7C3-4-MMAE, respectively, at 10 mg/Kg twice weekly for six doses. The Cisplatin (positive control) was administered intravenously at 7 mg/Kg weekly for three doses.

NTSR1 on A549 cells = target: T1, NTSR1 on A549 cells (Homo sapiens, UniProt P30989); assay: Flow cytometry (FACS) binding of anti-NTSR1 antibodies on A549 cells; details: A549 cells, one hour incubation at 4° C.
T1 construct: endogenous in cells; host or cells: A549 (NSCLC)
Protocol: A total of 1×10^6 cells were reacted with an anti-NTSR1 antibody in 100 μL of FACS buffer (PBS containing 0.5% BSA) for 60 minutes at 4° C. and washed two times to remove excess antibody. Secondary FITC (BD Pharmingen™) conjugated mouse anti-human IgG antibodies were incubated for an additional 60 minutes on ice. Cells were washed again and followed by an additional incubation with 1 ml PBS containing 0.5 mg/mL propidium iodide at 4° C. for 10 minutes. Data were collected on 10,000 living cells by FACS (Bio-Red S3e cell sorter). Fluorescence intensity from channel FL-1 was calculated with Flow Jo flow […] cytometry analysis software.

[5] = tested on: PC3 prostate tumor xenograft; assay: PC3 prostate tumor xenograft model; assay type: in vivo, nude mice
Excerpt: as §2, with “The mice were intravenously injected with 4 mL/Kg of dose volume by tail vein twice per week for 3 weeks, except for the Cisplatin group, which was once per week for 3 weeks. In the HA22T-Luc xenograft study, tumor-bearing mice were divided into 3 groups (8 mice per group): Human IgG −10 mg/Kg group (negative control), h7C3-3-MMAE −10 mg/Kg group and h7C3-4-MMAE (ADC) −10 mg/Kg group. The mice were intravenously injected with 4 mL/Kg of dose volume by tail vein twice per week for 2 weeks. In the PC-3 xenograft study, tumor-bearing mice were divided into 2 groups: no treatment group (5 mice) and h7C3-4-MMAE (ADC) −10 mg/Kg (8 mice). The mice in h7C3-4-MMAE −10 mg/Kg group were intravenously injected with 4 mL/Kg of dose volume by tail vein twice per week for 3 weeks. Each treatment was based on the body weight.” left out, “weekly. […]” for “weekly.”

[6] = 10 mg/kg i.v. twice weekly for six doses

T1 sequence (P30989 whole entry): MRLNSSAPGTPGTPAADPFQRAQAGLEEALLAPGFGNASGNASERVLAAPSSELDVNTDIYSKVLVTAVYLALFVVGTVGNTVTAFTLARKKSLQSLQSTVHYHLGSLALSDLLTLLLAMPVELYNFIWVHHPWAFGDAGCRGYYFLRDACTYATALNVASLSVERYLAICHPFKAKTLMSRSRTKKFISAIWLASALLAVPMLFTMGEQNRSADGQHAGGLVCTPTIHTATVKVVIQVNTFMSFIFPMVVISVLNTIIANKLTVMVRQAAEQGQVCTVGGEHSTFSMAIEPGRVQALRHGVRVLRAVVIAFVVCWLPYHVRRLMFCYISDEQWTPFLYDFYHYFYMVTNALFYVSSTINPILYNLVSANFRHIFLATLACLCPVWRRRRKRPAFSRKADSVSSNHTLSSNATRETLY

| Molecule | IC50 (PC-3) | IC50 (A549) | tumor volume on day 15 [2] | tumor volume until 36 days [2] | body weight [2] | tumor growth (tumor volume) until/on day 35 [4, 6] | body weight [4] | also measured |
| --- | --- | --- | --- | --- | --- | --- | --- | --- |
| B1 | > 500 nM | > 500 nM | – | – | – | – | – | isoelectric points (pI) compared to h7C3-3 (Isoelectric point (pI)): lower; pharmacokinetics (overall) ([1]; 10 mg/kg): better pharmacokinetics; clearance compared with h7C3-3 ([1]; single intravenous administration 10 mg/kg): significantly improved clearance |
| B2 | 21.9 ± 2.04 nM | 40.9 ± 1.63 nM | tumor regression | prolonged regression of tumor | did not show body weight loss | partial inhibition of the tumor growth | did not show body weight loss | IC50 (H1299): 95.6 ± 2.02 nM; IC50 (HA22T): 36.9 ± 3.04 nM; IC50 (HA22T-Luc): 39.4 ± 2.87 nM; IC50 (Mahlavu): 236 ± 6.9 nM; internalization efficiency [3]: internalized efficiently; binding on cell surface (NTSR1 on A549 cells): have binding efficiency on cell surface |
| B3 | 55.4 ± 5.17 nM | 33.5 ± 3.32 nM | tumor regression | prolonged regression of tumor | did not show body weight loss | Prolonged regression of tumor | did not show body weight loss | antitumor efficacy [5, 6]: highly efficacious; tumor volume until day 60 [5, 6]: prolonged regression of tumor; body weight / general physiological conditions ([5]; 10 mg/kg, PC3 xenograft mice): did not induce any abnormalities; also recorded: did not cause body weight loss; tumor growth (tumor volume) on day 18 ([4]; 10 mg/kg i.v. twice weekly for six doses, vs human IgG 10 mg/kg and Cisplatin 7 mg/kg): inhibited the tumor growth more potently |
| B4 | > 500 nM | > 500 nM | – | – | – | – | – | – |
| B5 | 56.5 ± 7.1 nM | 33.1 ± 1.72 nM | – | – | – | – | – | – |
